Data taken from publication PMC3091956.

Molecular target: T1, 6xHis-Stg (N-terminally histidine-tagged full-length mouse stargazin) (mouse), O88602
T1 chain: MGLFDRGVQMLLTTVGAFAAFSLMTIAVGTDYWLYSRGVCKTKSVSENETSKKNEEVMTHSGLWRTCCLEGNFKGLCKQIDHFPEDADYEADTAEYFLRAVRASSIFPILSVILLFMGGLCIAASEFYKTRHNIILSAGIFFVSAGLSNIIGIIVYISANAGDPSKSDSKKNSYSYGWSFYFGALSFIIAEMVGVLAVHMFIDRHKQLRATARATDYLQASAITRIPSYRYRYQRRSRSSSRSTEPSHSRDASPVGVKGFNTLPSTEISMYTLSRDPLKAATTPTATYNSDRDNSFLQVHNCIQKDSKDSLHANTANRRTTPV
Test: electron crystallography of 2D crystals
Details: remark: other sources report otherwise

stoichiometry N: 2
B1: 6xHis-Stg (N-terminally histidine-tagged full-length mouse stargazin), O88602 1-323 (natural protein)
chain: T1 chain
